From publication PMC4165372, “Nutritional status modulates box C/D snoRNP biogenesis by regulated subcellular relocalization of the R2TP complex” (Genome Biology, 2014)

T1: GST-Nop58-447 (S. cerevisiae, UniProt Q12499 1-447)
T1 construct: Cloned in pGEX-6P-1 (BamHI-XhoI); source: E. coli BL21(DE3) pRIL, purified (glutathione Sepharose 4B); not shown: GST, N-terminal, kept
T1 sequence (looked up): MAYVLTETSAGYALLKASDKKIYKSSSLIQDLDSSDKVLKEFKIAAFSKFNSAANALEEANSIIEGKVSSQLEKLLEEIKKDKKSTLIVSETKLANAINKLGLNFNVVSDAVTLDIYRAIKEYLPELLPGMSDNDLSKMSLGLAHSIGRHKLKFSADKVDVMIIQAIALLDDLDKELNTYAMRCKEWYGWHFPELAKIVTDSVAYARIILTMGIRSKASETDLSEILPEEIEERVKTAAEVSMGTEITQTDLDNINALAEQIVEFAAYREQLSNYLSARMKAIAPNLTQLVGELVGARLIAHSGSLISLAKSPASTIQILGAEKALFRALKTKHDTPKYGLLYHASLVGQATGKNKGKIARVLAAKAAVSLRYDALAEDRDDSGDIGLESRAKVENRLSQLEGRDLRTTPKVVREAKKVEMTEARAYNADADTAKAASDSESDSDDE

B1: GST-Nop58-MC (domain or fragment, S. cerevisiae, UniProt Q12499 158-447, looked up)
chain: KVDVMIIQAIALLDDLDKELNTYAMRCKEWYGWHFPELAKIVTDSVAYARIILTMGIRSKASETDLSEILPEEIEERVKTAAEVSMGTEITQTDLDNINALAEQIVEFAAYREQLSNYLSARMKAIAPNLTQLVGELVGARLIAHSGSLISLAKSPASTIQILGAEKALFRALKTKHDTPKYGLLYHASLVGQATGKNKGKIARVLAAKAAVSLRYDALAEDRDDSGDIGLESRAKVENRLSQLEGRDLRTTPKVVREAKKVEMTEARAYNADADTAKAASDSESDSDDE
notes: Nop58, S. cerevisiae, middle and C-terminal domains (lacks the N-terminal domain and the KKE/D repeat); start worked out from the forward primer NOP58-472-BamHI-F (nucleotide 472 = codon 158); The forward primer adds an ATG before the first Nop58 codon; also called pGST-Nop58-MC; pGEX-Nop58-MC; source: E. coli BL21(DE3) pRIL, purified (glutathione Sepharose 4B); not shown: GST, N-terminal, kept
B2: Pih1(1–230) (domain or fragment, S. cerevisiae, UniProt P38768 1-230, looked up)
chain: MADFLLRPIKQRHRNEDKYVSVDAADGSVSKIEPIADFVIKTKLLSANGPEKLQDGRKVFINVCHSPLVPKPEVDFNARIVFPLIIQNEWEIPIITSCYRMDHDKKGQECYVWDCCINSDCSRWICDDIQLREILVEWCLESCEIRDSVVLCRDRIAFPKMKKKGAELPALEVLNDELHQDYKAKMHKIIEEEAGDPMSILRGRNDDGDDNNDPDDGTLPPLFPIENKIS
notes: Pih1, S. cerevisiae, N-terminal domain, residues 1-230 of 344; also called N-terminal domain of Pih1
B3: full-length Pih1 (natural protein, S. cerevisiae, UniProt P38768 1-344, looked up)
chain: MADFLLRPIKQRHRNEDKYVSVDAADGSVSKIEPIADFVIKTKLLSANGPEKLQDGRKVFINVCHSPLVPKPEVDFNARIVFPLIIQNEWEIPIITSCYRMDHDKKGQECYVWDCCINSDCSRWICDDIQLREILVEWCLESCEIRDSVVLCRDRIAFPKMKKKGAELPALEVLNDELHQDYKAKMHKIIEEEAGDPMSILRGRNDDGDDNNDPDDGTLPPLFPIENKISGAKIEEIDKNEIAHRNLKQAPAPAPAPHEQQEDVPEYEVKMKRFKGAAYKLRILIENKAPNSKPDRFSPSYNFAENILYINGKLSIPLPRDIVVNAADIKIFHIRKERTLYIYI
notes: Pih1, S. cerevisiae, 344 amino acids
B4: GST-Nop58-NM (domain or fragment, S. cerevisiae, UniProt Q12499 1-284, looked up)
chain: MAYVLTETSAGYALLKASDKKIYKSSSLIQDLDSSDKVLKEFKIAAFSKFNSAANALEEANSIIEGKVSSQLEKLLEEIKKDKKSTLIVSETKLANAINKLGLNFNVVSDAVTLDIYRAIKEYLPELLPGMSDNDLSKMSLGLAHSIGRHKLKFSADKVDVMIIQAIALLDDLDKELNTYAMRCKEWYGWHFPELAKIVTDSVAYARIILTMGIRSKASETDLSEILPEEIEERVKTAAEVSMGTEITQTDLDNINALAEQIVEFAAYREQLSNYLSARMKAIA
notes: Nop58, S. cerevisiae, N-terminal and middle domains (lacks the C-terminal domain); end worked out from the reverse primer NOP58-852-XhoI-R (nucleotide 852 = codon 284); also called pGST-Nop58-NM; pGEX-Nop58-NM; source: E. coli BL21(DE3) pRIL, purified (glutathione Sepharose 4B); not shown: GST, N-terminal, kept

Tests used:
Conditions in all cases: both partners purified
[1] = molecular target: T2, R2TP complex (recombinant, preformed) (S. cerevisiae, UniProt Q03940 1-463; Q12464 1-471; P25638 1-111; P38768 1-344); experiment: pull-down; GST-Nop58-C on MagneGST glutathione particles incubated with 0.1 μM preformed Rvb1/2 or R2TP complex at 4°C for 16 h; washed with buffer H with 0.1 M KCl at 23°C; Western blot
T2 construct: Rvb1, S. cerevisiae; Rvb2, S. cerevisiae, untagged; Tah1, S. cerevisiae; Pih1, S. cerevisiae, untagged; also called preformed R2TP complex purified from E. coli; source: preformed complex purified from E. coli; not shown: His6 (HV-tag, with TEV site), N-terminal, cleaved; copies: + + +

[2] = molecular target: T3, Rvb1/Rvb2 complex (S. cerevisiae, UniProt Q03940 1-463; Q12464 1-471); experiment: as above
T3 construct: Rvb1, S. cerevisiae; Rvb2, S. cerevisiae, untagged; also called Rvb1/2; preformed Rvb1/2; source: E. coli BL21(DE3) pRIL, co-expressed (pCOLADuet-1), purified (Ni-NTA, TEV protease, Superdex 200); not shown: His6 (HV-tag, with TEV site), N-terminal, cleaved

[3] = molecular target: B2; experiment: pull-down; GST-Nop58 variants immobilised on glutathione Sepharose 4B, incubated with Pih1 or Pih1(1–230) 40 min at 30°C in GST lysis buffer (1×PBS, 0.1% NP40, 10% glycerol, 1 mM DTT); washes with 0.5 M NaCl; Ponceau S and Western blot
[4] = molecular target: B3; experiment: as above
[5] = molecular target: B4; experiment: as above
[6] = molecular target: T1, GST-Nop58-447; experiment: as above
[7] = molecular target: B1; experiment: as above

T2 sequence (Q03940 whole entry, chain 1 of 3): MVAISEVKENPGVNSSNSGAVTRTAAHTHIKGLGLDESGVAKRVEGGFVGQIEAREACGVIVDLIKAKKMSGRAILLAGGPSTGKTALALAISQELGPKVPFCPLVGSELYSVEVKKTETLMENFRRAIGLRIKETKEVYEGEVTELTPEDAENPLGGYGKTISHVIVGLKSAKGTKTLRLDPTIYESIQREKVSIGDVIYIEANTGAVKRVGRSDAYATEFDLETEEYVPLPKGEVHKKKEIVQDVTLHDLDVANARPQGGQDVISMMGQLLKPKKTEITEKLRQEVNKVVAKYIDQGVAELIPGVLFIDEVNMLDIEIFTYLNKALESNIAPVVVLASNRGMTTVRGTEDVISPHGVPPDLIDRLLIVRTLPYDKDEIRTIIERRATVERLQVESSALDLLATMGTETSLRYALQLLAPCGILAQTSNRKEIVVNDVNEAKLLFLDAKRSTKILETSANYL
T2 sequence (Q12464 whole entry, chain 2 of 3): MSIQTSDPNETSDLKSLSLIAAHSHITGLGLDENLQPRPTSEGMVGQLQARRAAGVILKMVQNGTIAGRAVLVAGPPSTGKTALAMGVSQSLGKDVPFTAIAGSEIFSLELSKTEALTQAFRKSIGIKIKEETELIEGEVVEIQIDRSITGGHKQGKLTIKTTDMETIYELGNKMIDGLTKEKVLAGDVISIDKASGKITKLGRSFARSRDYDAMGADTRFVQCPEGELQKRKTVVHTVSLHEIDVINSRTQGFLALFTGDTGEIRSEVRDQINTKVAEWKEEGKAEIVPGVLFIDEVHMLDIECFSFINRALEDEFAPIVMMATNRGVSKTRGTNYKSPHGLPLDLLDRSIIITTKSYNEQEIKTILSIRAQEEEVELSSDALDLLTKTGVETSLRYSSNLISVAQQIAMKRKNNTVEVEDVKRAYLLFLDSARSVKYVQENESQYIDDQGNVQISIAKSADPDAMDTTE
T2 sequence (P25638 whole entry, chain 3 of 3): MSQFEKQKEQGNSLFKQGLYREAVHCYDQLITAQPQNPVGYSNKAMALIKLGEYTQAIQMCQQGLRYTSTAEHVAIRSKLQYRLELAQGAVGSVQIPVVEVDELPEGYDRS
T3 sequence (Q03940 whole entry, chain 1 of 2): as the sequence (Q03940 whole entry, chain 1 of 3) above
T3 sequence (Q12464 whole entry, chain 2 of 2): as the sequence (Q12464 whole entry, chain 2 of 3) above

| Binder | binding result [4] | binding result [6] | also measured |
| --- | --- | --- | --- |
| GST-Nop58-C (domain or fragment, S. cerevisiae, UniProt Q12499 285-447, looked up, also called pGST-Nop58-C; pGEX-Nop58-C; source: E. coli BL21(DE3) pRIL, purified (glutathione Sepharose 4B; MagneGST Glutathione Particles for the reconstitution with Rvb1/2 or R2TP); not shown: GST, N-terminal, kept) PNLTQLVGELVGARLIAHSGSLISLAKSPASTIQILGAEKALFRALKTKHDTPKYGLLYHASLVGQATGKNKGKIARVLAAKAAVSLRYDALAEDRDDSGDIGLESRAKVENRLSQLEGRDLRTTPKVVREAKKVEMTEARAYNADADTAKAASDSESDSDDE | binds | – | binding result [1]: binds; binding result [2]: binds; binding result [3]: binds |
| B1 | binds | – | – |
| B2 | – | binds | binding result [5]: binds; binding result [7]: binds |
| B3 | – | binds | – |
| B4 | binds | – | – |
